Laboratory results taken from the supplement of paper PMC12042874.
± gives the uncertainty stated by the source.

Assay: amyloid nucleation score (Sup35N fusion, yeast selection) (log enrichment); library NNK1; higher = more nucleation; inactive = no reads after selection
In short: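 Peptides of 20 random codons, each fused to Sup35N, were expressed in psi-negative yeast. Cells were induced with 100 μM copper sulfate for 24 hours and grown 7 days at 30°C on medium lacking adenine and uracil, and plasmid inserts before and after selection were Illumina-sequenced. Nucleation scores are DiMSum log enrichments of output over input reads, centred on the mode score of non-aggregating sequences, and sequences under 100 input reads were excluded.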

Row | Substance | amyloid nucleation score
1 | MWYLMRTLTLIRFFVSPVGS | 0.154 ± 0.31
2 | MWYVHHCQGSVTLLARGRLC | 0.886 ± 1
3 | MYPTLRTRPTCIYVR | 1.19 ± 0.53
4 | MYRYLPNSTLLSRVLDTSSY | inactive
5 | MYTSRQNSARNRKLNSIAGF | -0.721 ± 0.77
6 | MYYCD | -0.35 ± 0.54
7 | NACFRYKAKMDRMSTRGANS | 1.88 ± 0.39
8 | NAVTFLHIVLRENNHGRMHK | 6.21 ± 0.073
9 | NCACC | 6.12 ± 0.065
10 | NCFLCSVARNNYVLRCPSSN | 6.07 ± 0.067
11 | NCFRLILFVLSDHRQWCFES | -1.78 ± 1.7
12 | NCGTVHGHADGSYVCDMGSR | -0.022 ± 0.98
13 | NCSGVFKGKSLTSCGT | -0.038 ± 0.21
14 | NCWFCNRQNSLSGKELYVIR | inactive
15 | NCWQLYLKHSVPRRIQRGYA | -0.577 ± 0.48
16 | NCYLLFFCRLSSLSYAYQVY | -0.815 ± 1.2
17 | NCYMIFVKRLPLC | 0.023 ± 0.41
18 | NDWRCSKGLLGFWRGGTRQA | 0.48 ± 0.28
19 | NEFTFSYKYGRHSGRSLKRR | 2.32 ± 0.28
20 | NESDI | 0.392 ± 0.26
21 | NFAPRYLAI | 0.295 ± 0.34
22 | NFCDSSGI | -0.912 ± 1.2
23 | NFCEVYGANIN | inactive
24 | NFLESSFYFFALVSASLSFN | 0.527 ± 0.25
25 | NFPKYGFQGVFRTPMWYGFF | -1.63 ± 1.1
26 | NFRLCLWSDAGLIGKAVFGY | 0.718 ± 0.39

Row | Substance | amyloid nucleation score
27 | NFTIDKRNAMLCVGRLYRSF | 1.05 ± 0.5
28 | NFTNFW | -0.732 ± 0.56
29 | NFYTFFQTRGFLSLSACALR | -1.12 ± 2.7
30 | NGFCEVDIVLFRVEVVAACV | -0.965 ± 2.4
31 | NGKSAQ | 4.05 ± 0.064
32 | NGNNQYRPVCDYSYYRRSCS | -0.234 ± 1.6
33 | NGPLHSYYTVWGCMYCLLML | 3.06 ± 0.23
34 | NGRTLINQYESLEATGICTV | 0.684 ± 0.78
35 | NGTIHMPLVWGYKLDRPRGW | 0.969 ± 0.7
36 | NGYQCYGILCAFVTWTVYFW | 1.26 ± 0.79
37 | NHALYDIWLIALSSRLYCQN | 0.342 ± 0.4
38 | NHGLYTVFWGCCPWFSQNLF | 7.894 ± 0.073
39 | NHGWVLNSNFYIPRKYSLVR | -1.25 ± 0.48
40 | NIEGRVYRIDSAGGPCIYVL | -0.621 ± 0.5
41 | NIFIFTVSHKPNY | 7.926 ± 0.057
42 | NIGMGSTLFLGRMSEQCWCS | 2.32 ± 0.14
43 | NIGMRDTGVLLDKLCQV | -0.594 ± 0.65
44 | NILDMCLKRYIFMLE | 1.44 ± 0.37
45 | NILGIAHTIGCLLLTFCCTL | inactive
46 | NIRKEGFFRFSPSTADTTCR | 0.618 ± 0.71
47 | NISSQEPISRAATSRKVAGQ | 0.466 ± 1.4
48 | NITFEVINQRCD | 3.38 ± 0.12
49 | NIVDVKPQKRETIRWLWIIF | -0.232 ± 0.2
50 | NKIGRAFVTSYGLRIHSGAG | -0.32 ± 0.76
51 | NKKNSSLNHSL | -0.077 ± 0.43
52 | NKQETSKWLWECGDCSRYLY | 1.18 ± 0.41

Row | Substance | amyloid nucleation score
53 | NKSNSLYGSLKWGDRAYSSY | -1.31 ± 0.71
54 | NKWLRCARGTVHWYAAIVGH | -0.942 ± 1.1
55 | NLFSLYGSNFLSP | 1.97 ± 0.14
56 | NLFTTSSCNLIFSTICFD | 7.281 ± 0.067
57 | NLGVKDLNTI | -0.905 ± 0.4
58 | NLKVESPGNGSWICTLEWVW | 6.645 ± 0.054
59 | NLLLIMDFVGWV | 1.48 ± 0.56
60 | NLLTMDIERTGECIDFWVD | 0.008 ± 0.38
61 | NLMFSNGSNRSGF | 0.142 ± 0.38
62 | NLNFAAPKGGV | -0.735 ± 2.4
63 | NLSGDDFGVNEKTSRWCQWG | 0.397 ± 1.2
64 | NLSGRSLSRLIDLFNRFTC | 0.919 ± 0.29
65 | NLSLRLFVSLSLIMTVMRVP | -0.127 ± 0.4
66 | NLYMANGDVMCSREGAEQCS | 1.5 ± 0.14
67 | NMFNDVGDWTFNKGSFTGTV | -0.482 ± 0.41
68 | NMLGSFPLTVLRKAWCCGSL | 1.04 ± 0.57
69 | NMLSLSRAAWKRN | inactive
70 | NMSCCSTPYNPWTSIVPNVM | 0.103 ± 0.39
71 | NMVSLMVDSELTFVSLICLE | 3.18 ± 0.064
72 | NNHFFMILYINKMVYMILKV | 0.38 ± 0.52
73 | NNLTVLIWVMPMDRI | 1.99 ± 0.39
74 | NNMRVLLRFLSVVLGSGEVR | 1.01 ± 0.67
75 | NNMRYTV | inactive
76 | NNMWSILTAAWDHVCSWRSS | 1.77 ± 0.5
77 | NNSSHGCRNVRNSQMSFVPQ | -0.165 ± 0.75
78 | NPEILCRLKIPFSSCLDSAS | 0.341 ± 0.61

Row | Substance | amyloid nucleation score
79 | NPFCFMMRTGRSGSGWVKRR | 0.088 ± 0.54
80 | NPFWWVRPL | 0.284 ± 0.81
81 | NPRPH | -0.601 ± 0.62
82 | NPSQIELRAFRTCMMYCGS | inactive
83 | NQFMHGTETYFEDINALVWG | 1.43 ± 0.66
84 | NQYSFRGLS | inactive
85 | NRALGMRGVIGPSVWYVVP | 0.534 ± 0.26
86 | NRARPLVSFMILGSVSECYA | 0.767 ± 0.21
87 | NRIKWVKRFSIPFLTWYEDW | 0.499 ± 0.53
88 | NRNKVR | -0.2 ± 1.1
89 | NSATRREPSVVGLYWSVR | -2.42 ± 2.7
90 | NSCQNPSEGF | -0.376 ± 1.2
91 | NSCWRTGLQVPVSQHYNQTI | -0.492 ± 0.61
92 | NSGESLS | -0.186 ± 0.85
93 | NSHDKVGVSILWTGRSRLVA | -0.003 ± 0.45
94 | NSMLNDCHDKLIIGFSEGWS | 0.091 ± 0.47
95 | NSPGYDQVNAYVGFKRRTMS | 0.128 ± 0.64
96 | NSPPSDHSLKV | -0.195 ± 1.4
97 | NSRNVCFWYVNCCLVHGILG | 7.543 ± 0.067
98 | NSSCIIPMLWWGHNHHWC | 3.43 ± 0.12
99 | NSSHLLVMCDICYNFKVRTL | -1.69 ± 1.5
100 | NSWDISRSMNVLGNRVNRFP | -0.765 ± 0.37
101 | NSWKNADVWCNASMHGWSGW | 0.697 ± 0.72
102 | NTCLH | 1.63 ± 0.43
103 | NTGRISYFFVVSNPSPYSLR | 3.75 ± 0.058
104 | NTKWLMGSLSIIVCMPKSYW | 6.294 ± 0.045

Row | Substance | amyloid nucleation score
105 | NTLCLHDFFHGLILWLSHQA | 1.01 ± 0.49
106 | NTNYGLIQFGILLCRFC | 6.814 ± 0.052
107 | NTSELRGNMSRHCKNSGGVI | -0.058 ± 0.62
108 | NTVFVIDESFGVMGWLGLKQ | 0.294 ± 0.82
109 | NVIGSGE | 1.08 ± 0.51
110 | NVLVAVFLFYVGPIGVAHCY | 1.12 ± 0.37
111 | NVLWGCQPNFVWDAWLRTEH | 0.777 ± 0.73
112 | NVMIAIPYVGVDKRGMVSGM | 5.22 ± 0.1
113 | NVSNLGSLMSTYGESCLVNF | inactive
114 | NVTCSHPGFFYSIVKTYMFR | -0.877 ± 1.9
115 | NVTDAI | inactive
116 | NVTNQCMLW | 0.509 ± 0.33
117 | NWCTNTRSIFTIRGTDAGTL | -0.721 ± 1.1
118 | NWFLYWT | 3.77 ± 0.11
119 | NWHGSLKPPYACEGALRVWR | 6.26 ± 0.08
120 | NWRSTLVSCLVYLPVLCCRC | 5.31 ± 0.058
121 | NWYVVYSWSEQIYREDSMGT | -0.52 ± 0.71
122 | NWYYRWELFVACFYLYSGWE | inactive
123 | NYAQVLRTSFTNGVLTLKEE | -0.526 ± 0.86
124 | NYFAIPCFESWSWRMYKVGF | 0.186 ± 0.9
125 | NYFEKR | -0.261 ± 0.47
126 | NYFFAAACKKVVQGQPCSF | 1.59 ± 0.29
